The test has as its target human VEGF (human) (UniProt P15692). The test is described as follows: cell-based or functional assay.
Sequence of UniProt P15692 (P15692 other isoform, or with tags, fused parts or gaps limits assumed): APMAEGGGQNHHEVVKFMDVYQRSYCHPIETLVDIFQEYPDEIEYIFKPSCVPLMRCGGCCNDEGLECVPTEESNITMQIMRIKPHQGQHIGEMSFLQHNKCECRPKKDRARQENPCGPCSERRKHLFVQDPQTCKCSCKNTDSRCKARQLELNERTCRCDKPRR

With VEGFR1-Fc-IL-1ra (Fc fusion), the EC50, inhibition of VEGF (10 ng/ml) dependent HUVE cell proliferation turned out to be 0.015 µg/mL.

These data come from patent US20080292628A1.
